This note sets out measurements from paper PMC2965227.

Data set [1] has as its target T1, YY1 (Yin Yang 1) (human, UniProt P25490 1-414). In words: EMSA. (Mobility shift assays separate free from complexed probe on a gel.)
For data set [2], the target named is T1, YY1 (Yin Yang 1). In words: EMSA. The source holds these as a separate data set.

Like-named read-outs stand apart in the source and are kept apart here.

T1 sequence (P25490 whole entry): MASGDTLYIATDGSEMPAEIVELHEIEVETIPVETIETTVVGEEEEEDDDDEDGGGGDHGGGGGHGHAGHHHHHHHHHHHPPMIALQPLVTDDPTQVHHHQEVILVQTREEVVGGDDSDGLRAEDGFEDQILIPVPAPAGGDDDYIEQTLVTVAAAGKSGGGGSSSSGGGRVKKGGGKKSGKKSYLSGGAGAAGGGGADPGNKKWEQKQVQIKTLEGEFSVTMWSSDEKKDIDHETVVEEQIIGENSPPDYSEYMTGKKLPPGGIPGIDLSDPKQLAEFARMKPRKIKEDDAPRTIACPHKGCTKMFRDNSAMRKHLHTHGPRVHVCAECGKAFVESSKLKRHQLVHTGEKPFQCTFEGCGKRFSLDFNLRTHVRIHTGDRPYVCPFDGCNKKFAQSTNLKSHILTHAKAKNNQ

B1: LEF1 P2 wild-type probe (+13 to +37) (dsDNA)
DNA 1: AAAGCATCCAGATGGAGGCCTCTAC
DNA 2: GTAGAGGCCTCCATCTGGATGCTTT
In the case of B1, the binding result in the data set with YY1 (Yin Yang 1) [1] is reported as “binds”.

B2: LEF1 P2 YY1-site mutant probe (ATG to CGT) (dsDNA)
DNA 1: AAAGCATCCAGCGTGAGGCCTCTAC
DNA 2: GTAGAGGCCTCACGCTGGATGCTTT
Turning to B2, the binding result with YY1 (Yin Yang 1) [2] was “no binding”.
